Reference: patent US20030166162

What was measured:
[1] = target: T1, GST-wild type calf chymosin pro-peptide-cystatin fusion protein, P09229
T1 chain: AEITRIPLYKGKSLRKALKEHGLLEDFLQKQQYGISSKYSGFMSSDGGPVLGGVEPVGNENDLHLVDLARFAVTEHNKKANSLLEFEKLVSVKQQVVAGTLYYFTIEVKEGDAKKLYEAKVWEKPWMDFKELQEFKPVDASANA

[2] = target: glutathione S transferase KLIP 11 chymosin pro-peptide cystatin fusion protein
[3] = target: glutathione S transferase KLIP 12 chymosin pro-peptide cystatin fusion protein
[4] = target: glutathione S transferase KLIP 14 chymosin pro-peptide cystatin fusion protein
[5] = target: glutathione S transferase KLIP 15 chymosin pro-peptide cystatin fusion protein
[6] = target: glutathione S transferase KLIP 16 chymosin pro-peptide cystatin fusion protein
[7] = target: glutathione S transferase KLIP 4 chymosin pro-peptide cystatin fusion protein

B1: calf chymosin (protein)
chain: GEVASVPLTNYLDSQYFGKIYLGTPPQEFTVLFDTGSSDFWVPSIYCKSNACKNHQRFDPRKSSTFQNLGKPLSIHYGTGSMQGILGYDTVTVSNIVDIQQTVGLSTQEPGDVFTYAEFDGILGMAYPSLASEYSIPVFDNMMNRHLVAQDLFSVYMDRNGQESMLTLGAIDPSYYTGSLHWVPVTVQQYWQFTVDSVTISGVVVACEGGCQAILDTGTSKLVGPSSDILNIQQAIGATQNQYGEFDIDCDNLSYMPTVVFEINGKMYPLTPSAYTSQDQGFCTSGFQSENHSQKWILGDVFIREYYSVFDRANNLVGLAKAI
[1]
  % Cystatin accumulation following reaction, 16 hr @ RT; product with N-terminus MSSDGG: 50%
  % Cystatin accumulation following reaction, 16 hr @ RT; product with N-terminus SGFMSSDGG: 50%
  % Cystatin accumulation following reaction, T = 0: 0%
[2]
  % Cystatin accumulation following reaction, 0.5 hr @ 37 C: 83%
  % Cystatin accumulation following reaction, 1.0 hr @ 37 C: 80.5%
  % Cystatin accumulation following reaction, 2.0 hr @ 37 C: 100%
  % Cystatin accumulation following reaction, 16 hr @ RT: 67.8%
  % Cystatin accumulation following reaction, T = 0: 0%
[3]
  % Cystatin accumulation following reaction, 0.5 hr @ 37 C: 84%
  % Cystatin accumulation following reaction, 1.0 hr @ 37 C: 99.4%
  % Cystatin accumulation following reaction, 2.0 hr @ 37 C: 87%
  % Cystatin accumulation following reaction, 16 hr @ RT: 64%
  % Cystatin accumulation following reaction, T = 0: 0%
[4]
  % Cystatin accumulation following reaction, 0.5 hr @ 37 C: 72%
  % Cystatin accumulation following reaction, 1.0 hr @ 37 C: 87%
  % Cystatin accumulation following reaction, 2.0 hr @ 37 C: 99%
  % Cystatin accumulation following reaction, 16 hr @ RT: 70%
  % Cystatin accumulation following reaction, T = 0: 0%
[5]
  % Cystatin accumulation following reaction, 0.5 hr @ 37 C: 40%
  % Cystatin accumulation following reaction, 1.0 hr @ 37 C: 57.8%
  % Cystatin accumulation following reaction, 2.0 hr @ 37 C: 77.8%
  % Cystatin accumulation following reaction, 16 hr @ RT: 85%
  % Cystatin accumulation following reaction, T = 0: 0%
[6]
  % Cystatin accumulation following reaction, 0.5 hr @ 37 C: 0%
  % Cystatin accumulation following reaction, 1.0 hr @ 37 C: 0%
  % Cystatin accumulation following reaction, 2.0 hr @ 37 C: 0%
  % Cystatin accumulation following reaction, 16 hr @ RT: 0%
  % Cystatin accumulation following reaction, T = 0: 0%
  Scissile bond (N-terminal sequence): Uncleavable
[7]
  % Cystatin accumulation following reaction, 0.5 hr @ 37 C: 100%
  % Cystatin accumulation following reaction, 1.0 hr @ 37 C: 100%
  % Cystatin accumulation following reaction, 2.0 hr @ 37 C: 100%
  % Cystatin accumulation following reaction, 16 hr @ RT: 87%
  % Cystatin accumulation following reaction, T = 0: 0%
